In IntAct's records for PubMed 24268649:

The substances below were run against ncor2_human NCOR2 (UniProt Q9Y618).
ncor2_human NCOR2, sequence (Q9Y618 whole entry): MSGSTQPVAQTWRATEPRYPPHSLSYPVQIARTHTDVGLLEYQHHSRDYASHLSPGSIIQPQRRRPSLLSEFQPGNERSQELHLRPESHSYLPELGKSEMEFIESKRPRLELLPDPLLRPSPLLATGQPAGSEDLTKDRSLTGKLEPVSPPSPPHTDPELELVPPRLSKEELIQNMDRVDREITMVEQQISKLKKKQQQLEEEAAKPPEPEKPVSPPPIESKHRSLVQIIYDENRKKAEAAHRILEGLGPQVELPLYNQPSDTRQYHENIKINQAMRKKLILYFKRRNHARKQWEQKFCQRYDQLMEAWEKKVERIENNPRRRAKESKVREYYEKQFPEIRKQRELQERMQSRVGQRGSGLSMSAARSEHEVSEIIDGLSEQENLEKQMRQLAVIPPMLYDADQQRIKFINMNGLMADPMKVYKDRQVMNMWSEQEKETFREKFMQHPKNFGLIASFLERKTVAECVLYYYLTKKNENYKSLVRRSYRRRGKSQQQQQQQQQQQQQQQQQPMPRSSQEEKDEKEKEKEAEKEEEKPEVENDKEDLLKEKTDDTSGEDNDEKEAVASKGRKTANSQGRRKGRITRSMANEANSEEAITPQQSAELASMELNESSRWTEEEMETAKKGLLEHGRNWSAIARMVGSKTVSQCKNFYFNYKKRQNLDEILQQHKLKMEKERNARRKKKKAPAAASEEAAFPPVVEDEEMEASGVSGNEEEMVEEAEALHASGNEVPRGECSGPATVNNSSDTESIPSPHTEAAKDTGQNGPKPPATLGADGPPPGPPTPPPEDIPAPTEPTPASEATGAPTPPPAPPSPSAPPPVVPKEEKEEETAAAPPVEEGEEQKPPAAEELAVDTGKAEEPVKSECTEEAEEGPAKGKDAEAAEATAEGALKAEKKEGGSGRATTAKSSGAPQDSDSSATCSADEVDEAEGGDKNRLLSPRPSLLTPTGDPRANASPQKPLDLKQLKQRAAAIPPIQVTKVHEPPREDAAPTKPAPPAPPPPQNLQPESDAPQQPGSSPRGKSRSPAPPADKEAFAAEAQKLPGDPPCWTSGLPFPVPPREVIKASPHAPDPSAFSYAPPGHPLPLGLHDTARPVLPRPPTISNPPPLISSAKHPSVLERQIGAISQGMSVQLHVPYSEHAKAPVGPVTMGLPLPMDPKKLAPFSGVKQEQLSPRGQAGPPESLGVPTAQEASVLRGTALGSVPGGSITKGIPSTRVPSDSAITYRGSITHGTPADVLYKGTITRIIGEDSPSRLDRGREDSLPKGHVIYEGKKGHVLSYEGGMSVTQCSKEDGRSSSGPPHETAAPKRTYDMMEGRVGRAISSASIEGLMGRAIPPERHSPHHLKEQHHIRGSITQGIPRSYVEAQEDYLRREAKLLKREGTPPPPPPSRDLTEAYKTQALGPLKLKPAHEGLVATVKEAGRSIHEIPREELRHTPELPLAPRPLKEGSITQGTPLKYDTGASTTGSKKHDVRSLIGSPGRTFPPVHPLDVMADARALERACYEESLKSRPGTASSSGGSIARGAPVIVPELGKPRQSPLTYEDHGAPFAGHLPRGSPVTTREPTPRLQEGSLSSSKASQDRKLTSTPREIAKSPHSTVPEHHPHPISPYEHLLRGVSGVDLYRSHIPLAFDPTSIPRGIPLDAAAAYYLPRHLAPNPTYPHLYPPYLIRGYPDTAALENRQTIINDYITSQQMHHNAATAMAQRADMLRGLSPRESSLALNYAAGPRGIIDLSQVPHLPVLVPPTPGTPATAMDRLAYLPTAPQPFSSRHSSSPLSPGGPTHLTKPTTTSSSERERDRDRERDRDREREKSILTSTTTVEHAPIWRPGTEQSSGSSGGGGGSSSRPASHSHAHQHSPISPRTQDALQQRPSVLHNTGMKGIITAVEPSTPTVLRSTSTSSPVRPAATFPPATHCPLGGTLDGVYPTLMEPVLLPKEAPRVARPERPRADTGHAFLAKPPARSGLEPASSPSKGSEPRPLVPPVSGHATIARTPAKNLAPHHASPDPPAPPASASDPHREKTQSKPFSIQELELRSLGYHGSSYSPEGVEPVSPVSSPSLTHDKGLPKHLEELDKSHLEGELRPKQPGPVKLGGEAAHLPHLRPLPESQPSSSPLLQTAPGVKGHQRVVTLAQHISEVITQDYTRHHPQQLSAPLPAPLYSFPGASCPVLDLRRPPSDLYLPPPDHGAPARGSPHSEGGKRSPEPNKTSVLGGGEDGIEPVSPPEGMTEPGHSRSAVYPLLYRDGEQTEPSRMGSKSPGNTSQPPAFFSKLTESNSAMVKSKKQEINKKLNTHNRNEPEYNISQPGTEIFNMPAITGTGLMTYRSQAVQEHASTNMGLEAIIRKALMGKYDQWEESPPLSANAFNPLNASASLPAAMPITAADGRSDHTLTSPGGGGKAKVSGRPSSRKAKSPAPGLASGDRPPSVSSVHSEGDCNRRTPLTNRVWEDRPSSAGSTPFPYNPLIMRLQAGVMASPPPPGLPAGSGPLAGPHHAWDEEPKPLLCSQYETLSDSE
With “Msx2-interacting protein (Homo sapiens), Q96T58 K3516A” the “effect of a mutation on the interaction” value was “disrupting interaction strength”. For “Msx2-interacting protein (Homo sapiens), Q96T58 K3606A”, the “effect of a mutation on the interaction” value was “disrupting interaction strength”. With “Msx2-interacting protein (Homo sapiens), Q96T58 L3515A” the “effect of a mutation on the interaction” value was “decreasing interaction strength”. For “Msx2-interacting protein (Homo sapiens), Q96T58 M3553A”, the “effect of a mutation on the interaction” value was “decreasing interaction strength”. For “Msx2-interacting protein (Homo sapiens), Q96T58 Q3551A”, the “effect of a mutation on the interaction” value was “decreasing interaction strength”. For “Msx2-interacting protein (Homo sapiens), Q96T58 R3548A”, the “effect of a mutation on the interaction” value was “decreasing interaction strength”. In the case of “Msx2-interacting protein (Homo sapiens), Q96T58 R3552A”, the “effect of a mutation on the interaction” value is reported as “disrupting interaction strength”. For “Msx2-interacting protein (Homo sapiens), Q96T58 R3552K”, the “effect of a mutation on the interaction” value was “decreasing interaction strength”. In the case of “Msx2-interacting protein (Homo sapiens), Q96T58 R3554A”, the “effect of a mutation on the interaction” value is reported as “decreasing interaction strength”. In the case of “Msx2-interacting protein (Homo sapiens), Q96T58 Y3602A”, the “effect of a mutation on the interaction” value is reported as “decreasing interaction strength”.
